{"source": "patent US20170233472A1", "about": "(MacroGenics, published 2017)", "key": {"[1]": {"target": "human ROR1 expressed on the surface of cancer cells (human, UniProt Q01973 30-937)", "sequence (Q01973 30-937)": "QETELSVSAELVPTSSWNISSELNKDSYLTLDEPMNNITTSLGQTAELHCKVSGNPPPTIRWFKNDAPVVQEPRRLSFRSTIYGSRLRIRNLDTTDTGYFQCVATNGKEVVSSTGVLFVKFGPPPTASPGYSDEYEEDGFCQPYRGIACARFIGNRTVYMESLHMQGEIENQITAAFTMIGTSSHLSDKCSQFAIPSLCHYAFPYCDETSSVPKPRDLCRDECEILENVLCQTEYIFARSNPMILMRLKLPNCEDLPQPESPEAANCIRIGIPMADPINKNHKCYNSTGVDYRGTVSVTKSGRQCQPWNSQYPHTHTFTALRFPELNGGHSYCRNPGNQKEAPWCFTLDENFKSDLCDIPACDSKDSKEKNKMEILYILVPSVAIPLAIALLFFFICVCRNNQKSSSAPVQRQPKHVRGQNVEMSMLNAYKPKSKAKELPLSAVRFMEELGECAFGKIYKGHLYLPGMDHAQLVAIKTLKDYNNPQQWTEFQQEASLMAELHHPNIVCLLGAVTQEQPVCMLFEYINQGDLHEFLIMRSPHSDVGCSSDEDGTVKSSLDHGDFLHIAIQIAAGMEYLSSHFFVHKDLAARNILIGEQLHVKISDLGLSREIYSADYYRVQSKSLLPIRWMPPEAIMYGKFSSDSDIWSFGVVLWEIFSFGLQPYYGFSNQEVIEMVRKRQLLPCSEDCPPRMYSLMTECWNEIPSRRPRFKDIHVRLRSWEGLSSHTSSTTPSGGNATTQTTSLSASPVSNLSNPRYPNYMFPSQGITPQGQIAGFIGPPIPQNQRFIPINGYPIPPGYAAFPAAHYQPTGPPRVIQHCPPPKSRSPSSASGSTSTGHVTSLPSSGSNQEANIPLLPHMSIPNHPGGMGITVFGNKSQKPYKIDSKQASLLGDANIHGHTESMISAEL", "experiment": "cell-based or functional assay"}, "[2]": {"target": "T1, His-tagged soluble human ROR1 (shROR1-His) (human, UniProt Q01973 30-406)", "T1 construct": "also called ROR1 protein; immobilized ROR1; not shown: His-Tag", "T1 sequence (Q01973 30-406)": "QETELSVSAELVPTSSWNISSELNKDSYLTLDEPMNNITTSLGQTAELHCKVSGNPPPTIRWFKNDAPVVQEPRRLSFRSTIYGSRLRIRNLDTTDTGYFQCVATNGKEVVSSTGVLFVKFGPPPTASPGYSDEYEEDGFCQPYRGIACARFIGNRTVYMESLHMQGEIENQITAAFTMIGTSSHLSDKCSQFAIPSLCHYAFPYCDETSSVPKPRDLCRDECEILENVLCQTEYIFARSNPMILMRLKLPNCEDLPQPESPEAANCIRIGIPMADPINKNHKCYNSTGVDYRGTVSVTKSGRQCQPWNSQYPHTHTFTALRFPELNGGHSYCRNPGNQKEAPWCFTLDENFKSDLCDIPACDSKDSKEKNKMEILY", "experiment": "SPR (BIACORE), trivalent binding molecule 6.25 to 100 nM passed over immobilized shROR1-His", "method": "The binding kinetics of each of the ROR1×CD3×CD8 trivalent binding molecules to ROR1 was investigated using BIACORE® analysis in which each trivalent binding molecule (6.25 to 100 nM) was passed over immobilized shROR1-His essentially as described above."}, "[3]": {"target": "T1, His-tagged soluble human ROR1 …", "experiment": "sandwich ELISA: plate coated with shROR1-His, serial dilutions of diabody, bound diabody detected with biotinylated CD3 and streptavidin-HRP; y axis 'Mean Value'", "method": "The ability of the bispecific ROR1×CD3 two and three chain diabodies DART-1 and DART-A to bind both ROR1 and CD3 was examined by a sandwich ELISA. Briefly, microtiter plates were coated with shROR1-His, the plates were washed and incubated with three-fold serial dilutions of DART-1 or DART-A. The amount of diabody binding to the immobilized ROR1 was assessed using a biotinylated CD3 detected with Streptavidin-HRP. All samples were analyzed on a plate reader and binding curves generated. […] The cells were washed twice incubated with biotin-conjugated mouse anti-EK-coil antibody that recognizes the E-coil/K-coil (EK) heterodimerization region (100 μL of 1 μg/mL mixed with 1:500 diluted streptavidin-phycoerythrin) for 45 min. The cells were then washed and resuspended with FACS buffer, and analyzed with a BD FCS Canto II flow cytometer using FlowJo v10 software."}}}
{"binder": "TRIDENT-A (other, parental anti-ROR1-VL/VH, CD3 mAb 1 (D65G), TRX2 (anti-CD8) as scFv-Fc third chain) chain 1: QLVLTQSPSASASLGSSVKLTCTLSSGHKTDTIDWYQQQPGKAPRYLMKLEGSGSYNKGSGVPDRFGSGSSSGADRYLTISSLQSEDEADYYCGTDYPGNYLFGGGTQLTVLGGGGSGGGGEVQLVESGGGLVQPGGSLRLSCAASGFTFSTYAMNWVRQAPGKGLEWVGRIRSKYNNYATYYADSVKGRFTISRDDSKNSLYLQMNSLKTEDTAVYYCVRHGNFGNSYVSWFAYWGQGTLVTVSSASTKGEVAACEKEVAALEKEVAALEKEVAALEKGGGDKTHTCPPCPAPEAAGGPSVFLFPPKPKDTLMISRTPEVTCVVVDVSHEDPEVKFNWYVDGVEVHNAKTKPREEQYNSTYRVVSVLTVLHQDWLNGKEYKCKVSNKALPAPIEKTISKAKGQPREPQVYTLPPSREEMTKNQVSLWCLVKGFYPSDIAVEWESNGQPENNYKTTPPVLDSDGSFFLYSKLTVDKSRWQQGNVFSCSVMHEALHNHYTQKSLSLSPGK chain 2: QAVVTQEPSLTVSPGGTVTLTCRSSTGAVTTSNYANWVQQKPGQAPRGLIGGTNKRAPWTPARFSGSLLGGKAALTITGAQAEDEADYYCALWYSNLWVFGGGTKLTVLGGGGSGGGGQEQLVESGGGLVQPGGSLRLSCAASGFTFSDYYMSWVRQAPGKGLEWVATIYPSSGKTYYADSVKGRFTISSDNAKNSLYLQMNSLRAEDTAVYYCARDSYADDAALFDIWGQGTTVTVSSASTKGKVAACKEKVAALKEKVAALKEKVAALKE chain 3: DIQMTQSPSSLSASVGDRVTITCKGSQDINNYLAWYQQKPGKAPKLLIYNTDILHTGVPSRFSGSGSGTDFTFTISSLQPEDIATYYCYQYNNGYTFGCGTKVEIKGGGGSGGGGSGGGGSQVQLVESGGGVVQPGRSLRLSCAASGFTFSDFGMNWVRQAPGKCLEWVALIYYDGSNKFYADSVKGRFTISRDNSKNTLYLQMNSLRAEDTAVYYCAKPHYDGYYHFFDSWGQGTLVTVSSVEPKSADKTHTCPPCPAPEAAGGPSVFLFPPKPKDTLMISRTPEVTCVVVDVSHEDPEVKFNWYVDGVEVHNAKTKPREEQYNSTYRVVSVLTVLHQDWLNGKEYKCKVSNKALPAPIEKTISKAKGQPREPQVYTLPPSREEMTKNQVSLSCAVKGFYPSDIAVEWESNGQPENNYKTTPPVLDSDGSFFLVSKLTVDKSRWQQGNVFSCSVMHEALHNRYTQKSLSLSPGK", "values": [{"measurement": "EC50 nM, redirected cell killing of Calu-3 cells by pan T-cells (LDH release)", "setting": "[1]", "value": 0.0027, "unit": "nM"}, {"measurement": "EC50 nM, redirected cell killing of JIMT-1 cells by pan T-cells (LDH release)", "setting": "[1]", "value": 0.0022, "unit": "nM"}, {"measurement": "EC50 nM, redirected cell killing of NCI-H1975 cells by pan T-cells (LDH release)", "setting": "[1]", "value": 0.0039, "unit": "nM"}, {"measurement": "Kd", "setting": "[2]", "value": 1.3, "unit": "nM"}]}
{"binder": "TRIDENT-D (other) chain 1: QLVLTQSPSASASLGSSVKLTCTLSSGHKTDTIDWYQQQPGKAPRYLMKLEGSGSYNKGSGVPDRFSGSSSGADWYLTISSLQSEDEADYYCGTDYPGNYLFGGGTQLTVLGGGGSGGGGEVQLVESGGGLVQPGGSLRLSCAASGFTFSTYAMNWVRQAPGKGLEWVGRIRSKYNNYATYYADSVKGRFTISRDDSKNSLYLQMNSLKTEDTAVYYCVRHGNFGNSYVSWFAYWGQGTLVTVSSASTKGEVAACEKEVAALEKEVAALEKEVAALEKGGGDKTHTCPPCPAPEAAGGPSVFLFPPKPKDTLMISRTPEVTCVVVDVSHEDPEVKFNWYVDGVEVHNAKTKPREEQYNSTYRVVSVLTVLHQDWLNGKEYKCKVSNKALPAPIEKTISKAKGQPREPQVYTLPPSREEMTKNQVSLWCLVKGFYPSDIAVEWESNGQPENNYKTTPPVLDSDGSFFLYSKLTVDKSRWQQGNVFSCSVMHEALHNHYTQKSLSLSPGK chain 2: QAVVTQEPSLTVSPGGTVTLTCRSSTGAVTTSNYANWVQQKPGQAPRGLIGGTNKRAPWTPARFSGSLLGGKAALTITGAQAEDEADYYCALWYSNLWVFGGGTKLTVLGGGGSGGGGQEQLVESGGGLVQPGGSLRLSCAASGFTFSDYYMSWIRQAPGKGLEWVATIYPSSGKTYYADSAKGRLTISSDNAKDSLYLQMNSLRAEDTAVYYCTRDSYADDAALFDIWGQGTTVTVSSASTKGKVAACKEKVAALKEKVAALKEKVAALKE heavy: not shown light: not shown", "values": [{"measurement": "Kd", "setting": "[2]", "value": 0.26, "unit": "nM"}]}
{"binder": "TRIDENT-C (other, anti-ROR1-VL(14) and VH(8)) chain 1: QLVLTQSPSASASLGSSVKLTCTLSSGHKTDTIDWYQQQPGKAPRYLMKLEGSGSYNKGSGVPDRFSGSSSGADWYLTISSLQSEDEADYYCGTDYPGNYLFGGGTQLTVLGGGGSGGGGEVQLVESGGGLVQPGGSLRLSCAASGFTFSTYAMNWVRQAPGKGLEWVGRIRSKYNNYATYYADSVKGRFTISRDDSKNSLYLQMNSLKTEDTAVYYCVRHGNFGNSYVSWFAYWGQGTLVTVSSASTKGEVAACEKEVAALEKEVAALEKEVAALEKGGGDKTHTCPPCPAPEAAGGPSVFLFPPKPKDTLMISRTPEVTCVVVDVSHEDPEVKFNWYVDGVEVHNAKTKPREEQYNSTYRVVSVLTVLHQDWLNGKEYKCKVSNKALPAPIEKTISKAKGQPREPQVYTLPPSREEMTKNQVSLWCLVKGFYPSDIAVEWESNGQPENNYKTTPPVLDSDGSFFLYSKLTVDKSRWQQGNVFSCSVMHEALHNHYTQKSLSLSPGK chain 2: QAVVTQEPSLTVSPGGTVTLTCRSSTGAVTTSNYANWVQQKPGQAPRGLIGGTNKRAPWTPARFSGSLLGGKAALTITGAQAEDEADYYCALWYSNLWVFGGGTKLTVLGGGGSGGGGQEQLVESGGGLVQPGGSLRLSCAASGFTFSDYYMSWIRQAPGKGLEWVATIYPSSGKTYYADSAKGRLTISSDNAKDSLYLQMNSLRAEDTAVYYCTRDSYADDAALFDIWGQGTTVTVSSASTKGKVAACKEKVAALKEKVAALKEKVAALKE chain 3: DIQMTQSPSSLSASVGDRVTITCKGSQDINNYLAWYQQKPGKAPKLLIYNTDILHTGVPSRFSGSGSGTDFTFTISSLQPEDIATYYCYQYNNGYTFGCGTKVEIKGGGGSGGGGSGGGGSQVQLVESGGGVVQPGRSLRLSCAASGFTFSDFGMNWVRQAPGKCLEWVALIYYDGSNKFYADSVKGRFTISRDNSKNTLYLQMNSLRAEDTAVYYCAKPHYDGYYHFFDSWGQGTLVTVSSVEPKSADKTHTCPPCPAPEAAGGPSVFLFPPKPKDTLMISRTPEVTCVVVDVSHEDPEVKFNWYVDGVEVHNAKTKPREEQYNSTYRVVSVLTVLHQDWLNGKEYKCKVSNKALPAPIEKTISKAKGQPREPQVYTLPPSREEMTKNQVSLSCAVKGFYPSDIAVEWESNGQPENNYKTTPPVLDSDGSFFLVSKLTVDKSRWQQGNVFSCSVMHEALHNRYTQKSLSLSPGK", "values": [{"measurement": "Kd", "setting": "[2]", "value": 0.19, "unit": "nM"}]}
{"binder": "TRIDENT-B (other, parental anti-ROR1-VL/VH, CD3 mAb 1 (D65G), TRX2 (anti-CD8) as Fab-type heavy and light chains) chain 1: QLVLTQSPSASASLGSSVKLTCTLSSGHKTDTIDWYQQQPGKAPRYLMKLEGSGSYNKGSGVPDRFGSGSSSGADRYLTISSLQSEDEADYYCGTDYPGNYLFGGGTQLTVLGGGGSGGGGEVQLVESGGGLVQPGGSLRLSCAASGFTFSTYAMNWVRQAPGKGLEWVGRIRSKYNNYATYYADSVKGRFTISRDDSKNSLYLQMNSLKTEDTAVYYCVRHGNFGNSYVSWFAYWGQGTLVTVSSASTKGEVAACEKEVAALEKEVAALEKEVAALEKGGGDKTHTCPPCPAPEAAGGPSVFLFPPKPKDTLMISRTPEVTCVVVDVSHEDPEVKFNWYVDGVEVHNAKTKPREEQYNSTYRVVSVLTVLHQDWLNGKEYKCKVSNKALPAPIEKTISKAKGQPREPQVYTLPPSREEMTKNQVSLWCLVKGFYPSDIAVEWESNGQPENNYKTTPPVLDSDGSFFLYSKLTVDKSRWQQGNVFSCSVMHEALHNHYTQKSLSLSPGK chain 2: QAVVTQEPSLTVSPGGTVTLTCRSSTGAVTTSNYANWVQQKPGQAPRGLIGGTNKRAPWTPARFSGSLLGGKAALTITGAQAEDEADYYCALWYSNLWVFGGGTKLTVLGGGGSGGGGQEQLVESGGGLVQPGGSLRLSCAASGFTFSDYYMSWVRQAPGKGLEWVATIYPSSGKTYYADSVKGRFTISSDNAKNSLYLQMNSLRAEDTAVYYCARDSYADDAALFDIWGQGTTVTVSSASTKGKVAACKEKVAALKEKVAALKEKVAALKE heavy: not shown light: not shown", "values": [{"measurement": "EC50 nM, redirected cell killing of Calu-3 cells by pan T-cells (LDH release)", "setting": "[1]", "value": 0.0044, "unit": "nM"}, {"measurement": "EC50 nM, redirected cell killing of JIMT-1 cells by pan T-cells (LDH release)", "setting": "[1]", "value": 0.0052, "unit": "nM"}, {"measurement": "EC50 nM, redirected cell killing of NCI-H1975 cells by pan T-cells (LDH release)", "setting": "[1]", "value": 0.0153, "unit": "nM"}, {"measurement": "Kd", "setting": "[2]", "value": 1.6, "unit": "nM"}]}
{"binder": "DART-D (bispecific antibody, Three chain Fc Region-containing ROR1×CD3 diabody) chain 1: QLVLTQSPSASASLGSSVKLTCTLSSGHKTDTIDWYQQQPGKAPRYLMKLEGSGSYNKGSGVPDRFSGSSSGADWYLTISSLQSEDEADYYCGTDYPGNYLFGGGTQLTVLGGGGSGGGGEVQLVESGGGLVQPGGSLRLSCAASGFTFSTYAMNWVRQAPGKGLEWVGRIRSKYNNYATYYADSVKGRFTISRDDSKNSLYLQMNSLKTEDTAVYYCVRHGNFGNSYVSWFAYWGQGTLVTVSSASTKGEVAACEKEVAALEKEVAALEKEVAALEKGGGDKTHTCPPCPAPEAAGGPSVFLFPPKPKDTLMISRTPEVTCVVVDVSHEDPEVKFNWYVDGVEVHNAKTKPREEQYNSTYRVVSVLTVLHQDWLNGKEYKCKVSNKALPAPIEKTISKAKGQPREPQVYTLPPSREEMTKNQVSLWCLVKGFYPSDIAVEWESNGQPENNYKTTPPVLDSDGSFFLYSKLTVDKSRWQQGNVFSCSVMHEALHNHYTQKSLSLSPGK chain 2: QAVVTQEPSLTVSPGGTVTLTCRSSTGAVTTSNYANWVQQKPGQAPRGLIGGTNKRAPWTPARFSGSLLGGKAALTITGAQAEDEADYYCALWYSNLWVFGGGTKLTVLGGGGSGGGGQEQLVESGGGLVQPGGSLRLSCAASGFTFSDYYMSWIRQAPGKGLEWVATIYPSSGKTYYADSAKGRLTISSDNAKDSLYLQMNSLRAEDTAVYYCTRDSYADDAALFDIWGQGTTVTVSSASTKGKVAACKEKVAALKEKVAALKEKVAALKE chain 3: not shown", "values": [{"measurement": "EC50 (read off the curve)", "setting": "[3]", "value": "~1", "unit": "nM"}]}
